Results published in US11180733B2, “Method of generating mesenchymal stem cells and uses thereof” (AGENCY FOR SCIENCE, TECHNOLOGY AND RESEARCH, priority 2016, dated 2021).
“Also recorded” adds a separate entry of the source.

Tests used:
BJC1-iPSCs = test: Differentiation of PS-like mesendoderm towards lateral plate-like mesoderm (qPCR, cell number at day 10); type: cell-based, human
Protocol: BJC1-iPSCs were differentiated towards mesoderm after 8 days of differentiation with indicated combination of FGF (20 ng/ml), Rock inhibitor Y27632 (5 uM) and Follistatin (100 ng/ml) in conjunction with the indicated signaling perturbations, qPCR was performed at day 10. […] BJC1-iPSCs were differentiated towards mesoderm after 8 days of differentiation with indicated combination of FGF (20 ng/ml), BMP4 (40 ng/ml), and Rock inhibitor Y27632 (5 uM) in conjunction with the indicated signaling perturbations, qPCR was performed at day 10. […] Mesoderm differentiation was induced with FGF (20 ng/ml), BMP4 (40 ng/ml), rock inhibitor Y27632 (5 μM, only used at the time of passage and remove the next day) and follistatin (100 ng/ml) for 8 days. Quantitative real-time PCR was performed with Taqman expression assay using ABI PRISM 7900HT sequence Detection System (Applied Biosystems). Briefly, […] of total RNA was converted to cDNA using high capacity cDNA archive kit in 30 μl and then diluted to 500 μl. Quantitative real-time PCR was done as follows: initial denaturation for 2 min at 50° C., 10 min at 95° C., following 40 cycles of PCR (95° C. for 15 s, 60° C. for 1 min) by using 5 μl of 2× Master mix, 0.5 μl of probe and 4.5 μl of cDNA. All probes were designed with a 5′ fluoregenic 6-carboxylfluorescein, and a 3′ quencher, tetramethyl-6-carboxyrhodamine. The expression of human GAPDH was used to normalize gene expression levels.

[1] = tested on: human induced pluripotent stem cells (iPSCs); test: Differentiation of iPSCs towards primitive streak (PS)-like mesendoderm (morphology, qPCR); type: cell-based
Protocol: BJC1-iPSCs were differentiated towards primitive streak-like mesendoderm cells for 2 days with indicated combination of CHIR99021 (3 μM) and FGF (20 ng/ml) in conjunction with the indicated signaling perturbations, qPCR was performed at day 2. […] FIG. 9C represents data from FACS analysis showing more than 97% cells at day 2 were positive for primitive streak genes MIXL1, Brachyury (T) and GSC. FIG. 9D represents the immunofluoresence results at day 2 showing the expression of MIXL1, Brachyury (T) and GSC after 2 day of primitive streak induction.
iPSCs from MRCS or BJ cell lines, or hESCs were differentiated into primitive streak-like mesendoderm cells and primitive streak mesendoderm cells respectively. Feeder-free iPSCs were maintained in mTeSR (Stem Cell Technologies) before differentiation. To differentiate iPSCs, iPSCs were digested with 1 mg/ml collagenase IV for 5-10 min at 37° C. into small clumps and placed on a fibronectin (FN, 10 μg/ml)-coated surface in medium containing activin A (25 ng/ml) and CHIR99021 (3 μM) for 1 day in a basal medium (DMEM: F12, 1% ITS, 2% B27, 2 mM L-Glutamine, 90 uM ß-mercaptoethanol), followed by Activin A (25 ng/ml), CHIR99021 (3 μM) and FGF (20 ng/ml) for subsequent 24 hours to differentiate toward primitive streak (PS)-like mesendoderm.
Quantitative real-time PCR was performed with Taqman expression assay using ABI PRISM 7900HT sequence Detection System (Applied Biosystems). Briefly, […] of total RNA was converted to cDNA using high capacity cDNA archive kit in 30 μl and then diluted to 500 μl. Quantitative real-time PCR was done as follows: initial denaturation for 2 min at 50° C., 10 min at 95° C., following 40 cycles of PCR (95° C. for 15 s, 60° C. for 1 min) by using 5 μl of 2× Master mix, 0.5 μl of probe and 4.5 μl of cDNA. All probes were designed with a 5′ fluoregenic 6-carboxylfluorescein, and a 3′ quencher, tetramethyl-6-carboxyrhodamine. The expression of human GAPDH was used to normalize gene expression levels.

[2] = compared with wnt3a (ACF vs AWF)
[3] = with FGF 20 ng/ml, BMP4 40 ng/ml, Y27632 5 uM, qPCR at day 10

## C[C@@H](N)[C@H]1CC[C@H](C(=O)Nc2ccncc2)CC1.Cl.Cl [Y27632, (R)-(+)-trans-4-(1-Aminoethyl)-N-(4-Pyridyl)cyclohexanecarboxamide dihydrochloride, reference compound]
BJC1-iPSCs; compared to NT4, dihydrochloride
  expression of lateral plate mesoderm genes Hand1 and FOXF1: increased the expression of lateral plate mesoderm genes Hand1 and FOXF1; also recorded: significantly increases the expression of lateral plate mesoderm genes
BJC1-iPSCs; compared with neurotrophi-4 (NT), day 10
  increase in cell number: 3.53±1.56 fold

## Cc1cnc(-c2cnc(NCCNc3ccc(C#N)cn3)nc2-c2ccc(Cl)cc2Cl)[nH]1 [CHIR99021, 6-[2-[[4-(2,4-dichlorophenyl)-5-(5-methyl-1H-imidazol-2-yl)pyrimidin-2-yl]amino]ethylamino]pyridine-3-carbonitrile, reference compound]
[1]; [2]
  adherence of iPSCs to the dish: promoted the adherence of iPSCs to the dish
  differentiation toward PS-like mesendoderm: promoted differentiation toward PS-like mesendoderm

## FGF: fibroblast growth factor; in one specific example FGF2
[1]; addition of FGF at day 2
  differentiation toward PS-like mesendoderm: did not further enhance differentiation toward PS-like mesendoderm
[1]; in the presence of FGF at day 2
  expression of mesoderm: expression of mesoderm increased

B1: activin A: Activin A formed by two activin βA subunits, member of the TGF-β superfamily (protein, UniProt P08476 311-426, looked up)
Inhibin beta A chain: GLECDGKVNICCKKQFFVSFKDIGWNDWIIAPSGYHANYCEGECPSHIAGTSGSSLSFHSTVINHYRMRGHSPFANLKSCCVPTKLRPMSMLYYDDGQNIIKKDIQNMIVEECGCS
modifications: Inhibin beta A chain
[1]; activin 25-100 ng/ml with CHIR99021 3 μM and FGF 20 ng/ml, qPCR at day 2
  differentiation towards PS-like mesendoderm expressing T, MIXL1 and GSC: enhanced differentiation towards PS-like mesendoderm
[1]; activin 25-100 ng/ml, qPCR at day 2
  expression of endodermal marker Sox17: increased with the dose
[1]; qPCR at day 2
  activin A concentration at which the ratio of increased MIXL1 or T to Sox17 was the highest: 25 ng/mL

B2: BMP4: bone morphogenetic protein (protein, UniProt P12644 293-408, looked up)
Bone morphogenetic protein 4: SPKHHSQRARKKNKNCRRHSLYVDFSDVGWNDWIVAPPGYQAFYCHGDCPFPLADHLNSTNHAIVQTLVNSVNSSIPKACCVPTELSAISMLYLDEYDKVVLKNYQEMVVEGCGCR
BJC1-iPSCs; with FGF 20 ng/ml, Y27632 5 uM, Follistatin 100 ng/ml, qPCR at day 10
  BMP4 concentration that led to the highest expression of lateral plate mesoderm markers: 40 ng/mL

B3: noggin: antagonism of BMP signaling (protein, UniProt Q13253 28-232, looked up)
Noggin: QHYLHIRPAPSDNLPLVDLIEHPDPIFDPKEKDLNETLLRSLLGGHYDPGFMATSPPEDRPGGGGGAAGGAEDLAELDQLLRQRPSGAMPSEIKGLEFSEGLAQGKKQRLSKKLRRKLQMWLWSQTFCPVLYAWNDLGSRFWPRYVKVGSCFSKRSCSVPEGMVCKPSKSVHLTVLRWRCQRRGGQRCGWIPIQYPIISECKCSC
BJC1-iPSCs; in the absence of BMP4 or in the presence of noggin, qPCR at day 10
  expression of ectodermal gene Sox1: 38.65 fold

B4: follistatin: protein encoded by the FST gene (protein, UniProt P19883 30-344, looked up)
Follistatin: GNCWLRQAKNGRCQVLYKTELSKEECCSTGRLSTSWTEEDVNDNTLFKWMIFNGGAPNCIPCKETCENVDCGPGKKCRMNKKNKPRCVCAPDCSNITWKGPVCGLDGKTYRNECALLKARCKEQPELEVQYQGRCKKTCRDVFCPGSSTCVVDQTNNAYCVTCNRICPEPASSEQYLCGNDGVTYSSACHLRKATCLLGRSIGLAYEGKCIKAKSCEDIQCTGGKKCLWDFKVGRGRCSLCDELCPDSKSDEPVCASDNATYASECAMKEAACSSGVLLEVKHSGSCNSISEDTEEEEEDEDQDYSFPISSILEW
BJC1-iPSCs; presence compared to absence of Follistatin, qPCR at day 10
  expression of lateral plate mesoderm genes Hand1 and FOXF1 and mesenchymal stem cell genes CD44 and CD105: significantly increases the expression
BJC1-iPSCs; [3]
  endodermal differentiation Sox17 and FOXA1: inhibited endodermal differentiation
  mesodermal differentiation: promoting mesodermal differentiation
